Results on one molecule are retold here after US20240408183A1, “KYNURENINE AMINOTRANSFERASE AND PRODUCTS THEREOF FOR THE TREATMENT OF INFLAMMATORY BOWEL DISEASES” (Institut National De Recherche Pour L'Agriculture, …, priority 2021, published 2024).

Assay [1] has as its system mice submitted to DSS-induced colitis. In words: DSS-induced colitis model in mice. The format is in vivo, mouse (C57BL/6JRj). The note with it: purified AADAT intraperitoneally. The protocol: C57BL/6JRj from Janvier lab, 7 weeks old, were housed in our specific pathogen free animal facility at IERP (INRA, Jouy en Josas, France). Five to ten female mice per group were used in all experiment, were maintained in a temperature controlled (23° C.) facility with a strict 12 h light/dark cycles and were given free access to food and water. After one acclimation week, we changed water with DSS 2% (MP Biomedical) during 7 days (day 0 to day 7), and a
recovery period was practiced until day 12 (during 5 days). Body weight loss and DAI (disease activity index) were performed daily. After 12 days the samples were harvested.
Colon distal part (cut in three parts) was harvested at day 12 after DSS model and put directly in PFA (Rothi®—Histofix 4%) during 48 h and transferred in ethanol 70% until the standard pre-fixation automat and paraffin embedded. HES coloration was practiced on 5Im cut.
Data were analyzed using Prism version 7 (Graphpad Software, San Diego, USA). The non-parametric Mann Withney test or the parametric one-way ANOVA tests with multiple Bonferroni's comparison tests were performed. Values are expressed as mean±SEM. Statistical significance was defined at a p-value ****<0.0001, ***<0.001, **<0.01, *<0.05.

For assay [2], the system named is kynurenine (KYNU) and 3-hydroxykynurenin, substrates of AADAT. As to the kind of experiment: AADAT activity test (disappearance of kynurenine/3-hydroxykynurenin; production of KYNA and XANA in vitro). The format is biochemical. The note with it: 15 min, KYNU 1000 μM, FIG. 4F. Here is the method:
KAT activity may be assessed by any method known by the skilled person. For instance, KAT activity could be assessed as described in the experimental section, i.e. an assay based on the disappearance of kynurenine and/or 3-hydroxykynurenin. Briefly, a reaction mixture (50 μL final volume) containing 10 mM L-kynurenine or 3-hydroxykynurenin, 2 mM α-oxoglutarate, 40 μM PLP (pyridoxal 5′-phosphate) and 0 or 1 μL of the protein to be tested prepared in buffer 100 mM potassium phosphate (pH 7.4), is incubated at 37° C. for 15 min. The reaction is stopped by the addition of an equal volume of 30% acetic acid. The supernatant of the reaction mixture, obtained by centrifugation at 3000 g for 10 min at 4° C., is mixed equally with Ehrlich's solution and incubated 15 min at room temperature to have a colorimetric reaction. In parallel, a standard range of kynurenine or 3-hydroxykynurenin from 0 μM to 1000 μM is made under the same conditions. The amount of kynurenine or 3-hydroxykynurenin present in the sample is measured with a spectrophotometer at an OD of 492 nm and calculated using the standard range. […]
The activity test is based on the disappearance of kynurenine and 3-hydroxykynurenin which are substrates of AADAT. […] The amount of kynurenine or 3-hydroxykynurenin present in the sample was measured with a spectrophotometer at an OD of 492 nm and calculated using the standard range (FIG. 4E).

Setting [3] is: 10, 1 and 0.1 μL per day and per mouse.

B1: AADAT: recombinant murine Alpha-Aminoadipate AminoTransferase (SEQ ID NO:13) expressed in E. coli and purified by affinity chromatography (protein, listed as Mus musculus)
chain: MNYSRFLTATSLARKPSPIRTTADILSKAPKTLISLAPGSPNPSMFPFKSAAFTVENGSTIRFEDDLIKRALQYSPSYGIPELLSWLKQFQVKLHNPPTVNYPPNQGQMDLCITSGCQDGLCKAFEMLINPGDTILVNEPLFPGTLYAMKPLGCNIINVPSDEHGIIPEGLKKILSQWKPEDSKDPTKKTPKFLYTVPNGNNPTGNSLTGDRKKEIYELARKYDFLIIEDDPYYFLQFSKPWEPTFLSMDVDGRVIRADTFSKTVSSGLRVGFMTGPKTLIQNIVLHTQVSSVHACTLSQLMILQLLHQWGEEGFLAHIDRTIDFYKNQRDSILAAADKWLRGLAEWHVPKAGMFLWIKVKGISDTKQLIEEKAIEREVLLVPGNGFFIDGSAPTSFFRASFSLATPAQMDTAFQRLAQLIKESL
Turning to B1, the “protective effect at the two lower doses” value in assay [1] (1 and 0.1 μL per day and per mouse) is “protective effect is also seen”. Further, in assay [1] (setting [3]), the clinical score result is given as “protection, with a dose effect”; the histological score result is listed as “protection, with a dose effect”; the weight loss result is listed as “protection, with a dose effect”. For the same molecule, in assay [1] (10, 1 and 0.1 μL per day and per mouse, day 12), the colon length entry is recorded as “protection, with a dose effect”. For the same molecule, in assay [2], the “transformation of KYNU into KYNA and XANA” value was “A dose effect can be observed”.
